Source: paper PMC7939288, “An apta-aggregation based machine learning assay for rapid quantification of lysozyme through texture parameters”

Target: lysozyme (chicken (hen egg white), UniProt P00698 19-147)
Experiment: visible aggregation assay (photograph texture); 3 ul of 25 nM aptamer + 10 ul of lysozyme; indirect read-out, lysozyme alone gave no aggregate; lysozyme in ultrapure water, no buffer or salt stated; 25 nM aptamer (3 ul) heated at 70 C for 3 min before use; 20 C, 70-90% relative humidity, about 1 min on
Conditions: protein: commercial; 3' hairpin (predicted only)

Sequence of lysozyme (P00698 19-147): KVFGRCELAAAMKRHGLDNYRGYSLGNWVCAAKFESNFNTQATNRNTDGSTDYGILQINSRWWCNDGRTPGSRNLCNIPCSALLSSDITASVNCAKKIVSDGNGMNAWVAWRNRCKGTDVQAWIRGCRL

ATCTACGAATTCATCAGGGCTAAAGAGTGCAGAGTTACTTAG (ssDNA) [anti-Lys aptamer (Ellington)]
binding result: binds
